One test concerns the target SARS-CoV-2 RBD (SARS-CoV-2, UniProt P0DTC2). Kind of test: ELISA.
In a further test the target is SARS-CoV RBD (SARS-CoV, UniProt P59594). Kind of test: ELISA.

We go through 23 molecules from US11634477 (dated 2023).

Where only a bound is given, the exact number is not on record here.

B1: C006 (antibody, V domains shown)
VH: QVQLVESGGGLVKPGGSLRLSCAASGFIFSDYCMSWIRRAPGKGLEWLSYISNSGTTRYYADSVKGRFTISRDNGRNSLYLQMDSLSAEDTAVYYCARRGDGSSSIYYYNYMDVWGKGTTVTVSS
VL: not shown
For B1, the concentration for a half-maximal effect (EC50) was 1.81 ng/mL with SARS-CoV-2 RBD and over 1000 ng/mL with SARS-CoV RBD.

B2: C201 (antibody, V domains shown)
VH: EVQLVESGGGLVQPGRSLRLSCAASGFTFDDYAMHWVRQAPGKGLEWVSGISWNSGSIGYADSVKGRFTISRDNAKNSLYLQMNSLRAEDTALYYCVKGVEYSSSSNFDYWGQGTLVTVSS
VL: IRMTQSPSSVSASVGDRVTITCRASQGISSWLAWYQQKPGKAPKLLIYVESSLQSGVPSRFSGSGSGTDFTLTISSLQPEDFATYYCQQANSFPLTFGGGTKVEIK
Turning to B2, the EC50 with SARS-CoV-2 RBD was 2.98 ng/mL; with SARS-CoV RBD, over 1000 ng/mL.

B3: C205 (antibody, V domains shown)
VH: QVQLVQSGAEVKKPGASVKVSCKASGHTFTSYYMHWVRQAPGQGLEWMGIINPSGGSTSYAQKFQGRVTMTRDTSTSTVYMELSSLRSEDTAVYYCARGPERGIVGATDYFDYWGQGTLVTVSS
VL: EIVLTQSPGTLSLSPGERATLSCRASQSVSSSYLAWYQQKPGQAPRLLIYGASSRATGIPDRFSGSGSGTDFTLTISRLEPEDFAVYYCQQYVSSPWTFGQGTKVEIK
For B3, the EC50 with SARS-CoV-2 RBD and in the test with SARS-CoV RBD was over 1000 ng/mL each time.

B4: C031 (antibody, V domains shown)
VH: EVQLVESGGGLVQPGGSLRLSCAASGFTFSSYDMHWVRQATGKGLEWVSAIGTAGDTYYPGSVKGRFTISRENAKNSLYLQMNSLRAGDTAVYYCARVGYDSSGYSGWYFDLWGRGTLVTVSS
VL: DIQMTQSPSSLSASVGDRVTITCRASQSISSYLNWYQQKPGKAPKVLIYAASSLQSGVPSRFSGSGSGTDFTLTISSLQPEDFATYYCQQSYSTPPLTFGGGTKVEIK
Turning to B4, the EC50 was 22.7 ng/mL in the test with SARS-CoV-2 RBD and over 1000 ng/mL with SARS-CoV RBD.

B5: C019 (antibody, V domains shown)
VH: QVQLVQSGAEVKKPGASVKVSCKASGYTFTSYYMHWVRQAPGQGLEWMGIINPSGGSTSYAQKFQGRVTMTRDTSTSTVYMELSSLRSEDTAVYYCARVPREGTPGFDPWGQGTLVTVSS
VL: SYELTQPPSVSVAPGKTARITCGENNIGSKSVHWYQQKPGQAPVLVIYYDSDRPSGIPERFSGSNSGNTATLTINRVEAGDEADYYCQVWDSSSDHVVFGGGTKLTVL
In the case of B5, the results for the 50% effective concentration (EC50) with SARS-CoV-2 RBD and with SARS-CoV RBD were 11.8 ng/mL and over 1000 ng/mL, respectively.

B6: C107 (antibody, V domains shown)
VH: QVQLVQSGAEVKKPGASVRVSCKASGYTFTSYGFSWVRQAPGQGLEWMGWISAYNGNTNFAQKLQGRVTMTTDTSTSTAYMELRSLRSDDTAVYYCARGEAVAGTTGFFDYWGQGTLVTVSS
VL: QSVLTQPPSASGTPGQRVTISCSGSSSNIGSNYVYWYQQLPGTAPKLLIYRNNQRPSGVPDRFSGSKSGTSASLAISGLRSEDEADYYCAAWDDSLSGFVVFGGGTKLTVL
Turning to B6, the concentration for a half-maximal effect (EC50) was 11.6 ng/mL in the test with SARS-CoV-2 RBD and over 1000 ng/mL with SARS-CoV RBD.

B7: C017 (antibody, V domains shown)
VH: EVQLVESGGGLVQPGRSLRLSCAASGFTFDDYAMHWVRQAPGKGLEWVSGISWNSGTIGYADSVKGRFTISRDNAKNSLYLQMNSLRAEDTAFYYCAKAGVRGIAAAGPDLNFDHWGQGTLVTVSS
VL: EIVLTQSPATLSLSPGERATLSCRASQSVSSYLAWYQQKPGQAPRLLIYDASNRATGIPARFSGSGSGTDFTLTISSLEPEDFAVYYCQQRITFGQGTRLEIK
As for B7, the EC50 with SARS-CoV-2 RBD is 1.63 ng/mL; with SARS-CoV RBD, over 1000 ng/mL.

B8: C151 (antibody, V domains shown)
VH: EVQLVESGGGLVKPGGSLRLSCAASGFTFSSYNMNWVRQAPGKGLEWVSCISSSSSYIYYADSVKGRFTISRDNAKNSLYLQMNSLRAEDTAVYYCARERGYDGGKTPPFLGGQGTLVTVSS
VL: NFMLTQPHSVSESPGKTVTISCTGSSGSIASNYVQWYQQRPGSAPTTVIYEDNQRPSGVPDRFSGSIDSSSNSASLTISGLKTEDEADYYCQSYDSSNYWVFGGGTKLTVL
With B8, the half-maximal effective concentration (EC50) in the test with SARS-CoV-2 RBD was 4.3 ng/mL; in the test with SARS-CoV RBD, over 1000 ng/mL.

B9: C140 (antibody, V domains shown)
VH: EVQLVESGGGLVQPGGSLRLSCAASGVTVSSNYMSWVRQAPGKGLEWVSLIYSGGSTFYADSVKGRFTISRDNSENTLYLQMNTLRAEDTAVYYCARDLYYYGMDVWGQGTTVTVSS
VL: DIQLTQSPSFLSASVGDRVTITCRASQGISSYLAWYQQKPGKAPKLLIYAASTLQSGVPSRFSGSGSGTEFTLTISSLQPEDFATYYCQQLNSYSYTFGQGTKLEIK
Consider B9, for which the EC50 with SARS-CoV-2 RBD was 2.19 ng/mL; with SARS-CoV RBD it was over 1000 ng/mL.

B10: C122 (antibody, V domains shown)
VH: EVQLVESGGGLIQPGGSLRLSCAASGLTVSSNYMSWVRQAPGKGLEWVSVLYSGGSSFYADSVKGRFTISRDNSKNTLYLQMNSLRAEDTAVYYCARESGDTTMAFDYWGQGTLVTVSS
VL: DIQLTQSPSFLSASVGDRVTITCRASQGISSYLAWYQQKPGKAPKLLIYAASTLQSGVPSRFSGSGSGTEFTLTISSLQPEDFATYYCQQLNSDSYTFGQGTKLEIK
As to B10, the results for the half-maximal effective concentration (EC50) with SARS-CoV-2 RBD and with SARS-CoV RBD were 2.67 ng/mL and over 1000 ng/mL, respectively.

B11: C143 (antibody, V domains shown)
VH: EVQLVESGGGLVQPGGSLRLSCAASGFSVSTKYMTWVRQAPGKGLEWVSVLYSGGSDYYADSVKGRFTISRDNSKNALYLQMNSLRVEDTGVYYCARDSSEVRDHPGHPGRSVGAFDIWGQGTMVTVSS
VL: QSALTQPASVSGSPGQSITISCTGTSNDVGSYTLVSWYQQYPGKAPKLLIFEGTKRSSGISNRFSGSKSGNTASLTISGLQGEDEADYYCCSYAGASTFVFGGGTKLTVL
Turning to B11, the EC50 in the test with SARS-CoV-2 RBD was 3.66 ng/mL; in the test with SARS-CoV RBD, over 1000 ng/mL.

B12: C004 (antibody, V domains shown)
VH: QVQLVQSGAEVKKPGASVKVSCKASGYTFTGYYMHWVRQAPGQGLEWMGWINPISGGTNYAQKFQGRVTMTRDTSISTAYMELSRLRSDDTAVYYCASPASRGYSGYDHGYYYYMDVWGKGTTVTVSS
VL: AIRMTQSPSSLSASVGDRVTITCQASQDISNYLNWYQQKPGKAPKLLIYDASNLETGVPSRFSGSGSGTDFTFTISSLQPEDIATYYCQQYDNLPITFGQGTRLEIK
Consider B12, for which the values for the 50% effective concentration (EC50) with SARS-CoV-2 RBD and with SARS-CoV RBD were 2.39 ng/mL and over 1000 ng/mL, respectively.

B13: C021 (antibody, V domains shown)
VH: QVQLQESGPGLVKPSQTLSLTCTVSGGSISSGGYYWSWIRQHPGKGLEWIGYIYYSGSTYYNPSLKSRVTISVDTSKNQFSLKLSSVTAADTAVYYCARVWQYYDSSGSFDYWGQGTLVTVSS
VL: not shown
Take B13: the results for the EC50 in the test with SARS-CoV-2 RBD and with SARS-CoV RBD were 1.25 ng/mL and over 1000 ng/mL, respectively.

B14: C018 (antibody, V domains shown)
VH: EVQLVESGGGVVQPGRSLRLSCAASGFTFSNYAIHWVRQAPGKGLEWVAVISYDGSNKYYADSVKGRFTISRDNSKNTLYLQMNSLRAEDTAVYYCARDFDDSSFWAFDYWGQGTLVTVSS
VL: DIQLTQSPSSLSASVGDRVTITCRASQSIRSYLNWYQQKPGKAPKLLIYAASSLQSGVPSRFSGSGSGTDFTLTISSLQPDDFATYYCQQSYSTPPATFGQGTKLEIK
On to B14, for which the concentration for a half-maximal effect (EC50) is 1.53 ng/mL with SARS-CoV-2 RBD and over 1000 ng/mL with SARS-CoV RBD.

B15: C155 (antibody, V domains shown)
VH: EVQLVESGGGLIQPGGSLRLSCAASGFIVSSNYMSWVRQAPGKGLEWVSVIYSGGSTFYADSVKGRFTISRDNSKNTLYLQMNSLRAEDTAVYYCARDFGEFYFDYWGQGTLVTVSS
VL: EIVMTQSPATLSVSPGERATLSCRASQSVSSNLAWYQQKPGQAPRLLIYGASTRATAIPARFSGSGSGTEFTLTISSLQSEDFAVYYCQQYNNWPRTFGQGTKVEIK
Take B15: the concentration giving a half-maximal response (EC50) in the test with SARS-CoV-2 RBD was 3.3 ng/mL; with SARS-CoV RBD, over 1000 ng/mL.

B16: C202 (antibody, V domains shown)
VH: EVQLVESGGGLVQPGGSLRLSCAASGFTVSSNYMSWVRQAPGKGLEWVSLIYSGGSTYYADSVKGRFTISRDNSKNTLYLQMNSLRAEDTAVYYCARDTLGRGGDYWGQGTLVTVSS
VL: DIQLTQSPSSLSASVGDRVTITCQASQDISNYLNWYQQKPGKAPKLLIYDASNLETGVPSRFSGSGSGTDFTFTISSLQPEDIATYYCQQYDNLPRSFGQGTKLEIK
Consider B16, for which the EC50 with SARS-CoV-2 RBD is 3.4 ng/mL; in the test with SARS-CoV RBD, over 1000 ng/mL.

B17: C210 (antibody, V domains shown)
VH: EVQLVESGGGLIQPGGSLRLSCAASGFTVSSNYMSWVRQAPGKGLEWVSVIYSGGSTFYADSVKGRFTFSRDNSKNTLYLQMNSLRAEDTAVYYCARDLMAYGMDVWGQGTTVTVSS
VL: DIQLTQSPSFLSASVGDRVTITCRASQGISSYLAWYQQKPGKAPKLLIYAASTLQSGVPSRFSGSGSGTEFTLTISSLQPEDFATYYCQQLNSYPQGTFGGGTKVEIK
As for B17, the concentration for a half-maximal effect (EC50) with SARS-CoV-2 RBD was 2.83 ng/mL; with SARS-CoV RBD, over 1000 ng/mL.

B18: C148 (antibody, V domains shown)
VH: EVQLVESGGGLVQPGGSQRLSCAASGFTVSSNYMSWIRQAPGKGLEWVSVIYSGGSAYYVDSVKGRFTISRDNSKNTLYLQMNSLRPEDTAVYYCARIANYMDVWGKGTTVTVSS
VL: EIVMTQSPATLSVSPGERATLSCRASQSVSSHLAWYQQKPGQAPRLLIYGASTRATGIPTRFSGSGSGTEFTLTISSLQSEDFAVYYCQQYNNWPPLTFGGGTKVEIK
B18: the EC50 with SARS-CoV-2 RBD was 64.7 ng/mL; with SARS-CoV RBD it was over 1000 ng/mL.

B19: C208 (antibody, V domains shown)
VH: EVQLVQSGAEVKKPGESLKISCKGSGYSFTSYWIGWVRQMPGKGLEWMGIIYPGDSDTRYSPSFQGQVTISADKSISTAYLKWSSLKASDSAMYYCARGPNLQNWFDPWGQGTLVTVSS
VL: EIVLTQSPGTLSLSPGERATLSCRASQSVSGSYLAWYQQRPGQAPRLLIYGASSRATGIPDRFSGSGSGTDFTLTISRLEPEDFAVYYCQQYGSSLTFGGGTKVEIK
On to B19, for which the EC50 with SARS-CoV-2 RBD and with SARS-CoV RBD was over 1000 ng/mL each time.

B20: C013 (antibody, V domains shown)
VH: QVQLVQSGAEVKKPGSSVKVSCKASGGTFSSYAISWVRQAPGQGLEWMGGIIPIFGTANYAQKFQGRVTITADESTSTAYMELSSLRSEDTAVYYCARGNRLLYCSSTSCYLDAVRQGYYYYYYMDVWGKGTTVTVSS
VL: EIVLTQSPATLSLSPGERATLSCRASQSVSSYLAWYQQKPGQAPRLLIYDASNRATGIPARFSGSGSGTDFTLTISSLEPEDFAVYYCQQRSNWPLTFGGGTKVEIK
For the molecule B20, the concentration for a half-maximal effect (EC50) in the test with SARS-CoV-2 RBD is 2.59 ng/mL; in the test with SARS-CoV RBD it was over 1000 ng/mL.

B21: C110 (antibody, V domains shown)
VH: QVQLQQSGAEVKKPGESLKISCKGSGYSFTSYWIGWVRQMPGKGLEWMGIIYPGDSDTRYSPSFQGQVTISADKSISTAYMQWSSLKASDTAMYYCARSFRDDPRIAVAGPADAFDIWGQGTMVTVSS
VL: DIQMTQSPSTLSASVGDRVTITCRASQSISYWLAWYQQKPGKAPKLLIYQASSLESGVPSRFSGSESGTEFTLTISSLQPDDFATYYCQQYNSYPYTFGQGTKLEIK
Regarding B21, the EC50 with SARS-CoV-2 RBD was 7.29 ng/mL; with SARS-CoV RBD it was over 1000 ng/mL.

B22: C016 (antibody, V domains shown)
VH: EVQLVESGGGVVQPGRSLRLSCAASGFTFSRYGMHWVRQAPGKGLEWVAVISYDGSNKYYADSVKGRFTISRDNSKNTLYLQMNSLRAEDTAVYYCAKVTAPYCSGGSCYGGNFDYWGQGTLVTVSS
VL: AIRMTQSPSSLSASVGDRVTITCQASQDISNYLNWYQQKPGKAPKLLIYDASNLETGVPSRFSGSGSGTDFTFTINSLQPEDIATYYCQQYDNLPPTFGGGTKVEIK
On to B22, for which the 50% effective concentration (EC50) was 7.41 ng/mL with SARS-CoV-2 RBD and over 1000 ng/mL with SARS-CoV RBD.

B23: C030 (antibody, V domains shown)
VH: EVQLVESGGGVVQPGRSLRLSCAASGFTFSSYGMHWVRQAPGKGLEWVAVISYDGSNKYYADSVKGRFTISRDNSKNTLYLQMNSLRAEDTAVYYCAKASGIYCSGGNCYSYYFDYWGQGTLVTVSS
VL: not shown
B23: the concentration for a half-maximal effect (EC50) was 2.89 ng/mL with SARS-CoV-2 RBD and over 1000 ng/mL in the test with SARS-CoV RBD.
